# Test results reported in the supplement of paper PMC9170038.
# Tested on: K4 kissing-loop RNA reporter
# Test: apparent KD of K4 kissing-loop reporter; higher = weaker reporter binding
# Conditions: Eterna round: R107; input ligand: theophylline 20 uM
# Description: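 RNA-MaP round R107: designed RNA switches with theophylline, tryptophan, arginine or FMN aptamers are transcribed on-chip within common flanks. They are titrated with a labelled K4 kissing-loop RNA reporter in RNA-MaP buffer (100 mM Tris pH 7.5, 80 mM KCl, 4 mM MgCl2), without ligand or with the indicated ligand. Median apparent KD per design.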
# 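Note: bound reporter read as fluorescence of individual clusters on recovered sequencing chips by microscopy, with normalized cluster intensities fitted with a binding model.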
row,Sequence,apparent KD of K4 kissing-loop reporter
1,AAGGGCUAGGCGGCCGCCACUGGUCGUGUACACAUACGAACCAGUGAUGUUGGUAUUGUAUGCGGCAGGACCGGGCCUAGCCGAA [Exclusion - Tryptophan B (Freestyle 26)],614 nM
2,AGAUCUGUAACAGAUACCAGAGGACGAUGAUCGGAUAGUGAUGUUAUCUGUCAGUCGUCGCUCCCUUGGCAGCUGUUACAGAUCA [Omei KL Theo B SS B v1],135 nM
3,CGGGUACGUCAAGGAUAUAGGCAUGACGUAGUGCAGUGAUGUUGCUCGAGUCUCUUCAACUGAGGACUAGAAGGUGAUCGUAACA [theeternabot_sameState_KL_FMN_B_15],644 nM
4,AAACAUCACUGGGAGUGAUGUUCUCAGUGACGAGGACCGGUACGGCCGCCACUCGCGAGAGAUAUAGUUAAGUAAUGACUGCAUU [Excl Tryptophan A V7],333 nM
5,UCCUAGGCUCGAAAGAGCCUAGGAUUAACUCAGGAUAUCCGGAAACGGAGAAGGGAGUAACUAGUGAUGUUAGGGAUUCCCUAUU,87.9 nM
6,UGGUUUAACUGAAGGAGCGGCAAUUGAUAAGUAAAUAUAGUGAUGUUAUAUAAGAUAGAGAGCCAGGUAGGUCGCAGAGGUAUUU [ExArgB.O],143 nM
7,AACUCUCAGACACUUGAGUGAUGUUCAGACCGAGGACCGGUACGGCCGCCACUCGGGUCUGAGAGAGGUUAUCAAAGAUAGCCAA [Omei KL Tryp A SS A v7],292 nM
8,UGACUGGAUGGAAGGAGCGCUAAACUCCUAGUGAUGUUAGGGAUAUGAGGCAAAGCCUCGAGGCAGGUAGGUCGCCAUCUAGUCU [FiskerMod 19 - Jieux - Same State - Arginine B],142 nM
9,UGAUACCAGACGGCCGCCACUCCCGUAAGUCAAAGACUUACGAAGAGGGUUUUUUAGUGAUGUUGGAGGACCGGGUCUGGUAUCU [FiskerMod 18 - Jieux - Exclusion - Tryptophan B],653 nM
10,UGUCAUUGGUCGGCCGCCACUAAAAUAAAAGAGUGAUGUUCUUAAAAGACGGACAAAGUCUGUCAUAGGACCGGGACCGAUGACU [TrypBS 23 #SwitchBubble #StaticStem],436 nM
11,AUAUUUAUUUAGUCACUUUUAAUAUUAUGUCAGGAUAUCGUAAUUUCGAGAAGGGACUCAUGCUAGUGAUGUUAGCUAAUUCUCA [JR_Nu3_ExcFMNA_Sub023],160 nM

# Same assay, conditions: Eterna round: R107; input ligand: tryptophan 2.4 mM
row,Sequence,apparent KD of K4 kissing-loop reporter
1,AUUUAUCCGUCCAGCUGAGUGAUGUUUAGCCGAGGACCGGUACGGCCGCCACUCGUAAGAACCUGUUACGUUGGCUCCUGUGGUG [theeternabot_exclusion_KL_Trp_A_49],353 nM
2,UUACGAGUGAUGUUCGAAUAAAUCCAUUCAGAGGAUAUAGUAUUAACUAGAAGGCUGAAACCAACUUCGAGUGAUGUUCGAGGAU [Same State FMN A GF 3],90.8 nM
3,AUAUUGGUUGAGAGUGAUGUUCCUUGUGUUCGAGGACCGGUACGGCCGCCACUCGGGUAGAAAAUAAAAGAUAUGUUUGAUUUUU [BDazzled - #12 SS Tryptophan A],279 nM
4,AAGGGCUAGGCGGCCGCCACUGGUCGUGUACACAUACGAGCCAGUGAUGUUGGUAUUGUGUGCGGCAGGACCGGGCCUAGCCGAA [Exclusion - Tryptophan B (Freestyle 25)],387 nM
5,UUAGCAGUAUACUGCAAGACCUAUACUGAUACCAGAGCCUAUAGGCUCCCUUGGCAGCGGAUCGAGUGAUGUUCGUAAGGUCAUU [AK4.3 SS Theophylline A],458 nM
6,UAUUCUGUUCGAAAGAACGGAAUUUCGGAAGGAGCGAGAGAAAUCUCAGGUAGGUCGCCGAAAUUAUUAGGUAGUGAUGUUACCU [Arginine A K4 5],123 nM
7,UGUCAUUGGUCGGCCGCCACUUCAUAGAGAGUGAUGUUCUUUAAGACGGAUCGAAAGAUCUGUCGAAGGACCGGGACCGAUGACU [FiskerMod 10 - Jieux - Same State - Tryptophan B],262 nM
8,AAACUUGCAGUGAUGUUGCAAGUAGGUGAUACCAGCAUCGAAAGAUGCCCUUGGCAGCACCAAAACAUCACUUAGGUAUCACCAA [(H1)-(H2)-(T1)-(T2)-(H)'-(T)'_Design3],175 nM
9,GGAUAGGACUGAGGAUAUGGUAGUGAUGUUACCAAACUGGUUAAACAUGUCAGAAAACUGGCAUGACCAGAAGGCGGUCCUAUCG [FmnBX 27 U10+G76],57.2 nM
10,UAACAGGCCCUCACCGUCUUAUUUACAGACCGAGGACCGGUACGGCCGCCACUCGUGAAGUGAUGUUUCAAACAAGCGGUAGGAU,328 nM
11,AAGCUACGCGCGGCCGCCACUGUUUAUGUAUAAAUGCGUCGCUCACUGCUUUAGUGAUGUUGAAGCAGGACCGGGCGAAUGGUAC [theeternabot_exclusion_KL_Trp_B_15],82.7 nM
12,CAUACGCAUGGAGGAUAUGAGAUUUCUCAUAUUAUUGCUUAUUCUCAGUGAUGUUGGGAUUUAAGCUCAGAAGGCCAUGUGUAUG [Ex FMN B 10],85.8 nM
13,GUGUAAGUGAUGUUUGCACACACGUCGGAUACCAGAGACUUUAGCCUCCCUUGGCAGCCGCCGGCCAUAAGAGCAAGUCGAUUUA [theeternabot_sameState_KL_Theo_A_20],176 nM
14,UGAUACCAGACUGAUACCAGCAGUGAUGUUGCUGAAAAUAAUAAAUGAGUCAAAGACUCGGGCCCUUGGCAGCAGUCUGGUAUCU [TheoBX 8 #SwitchBubble #StaticStem],95.9 nM
15,UUGCCUCUGGCUGAUACCAGUGAUGCAGGGUAUGAAACAGGGAGUGAUGUUCCCUGCAGCCACCCUUGGCAGCAGUUUAAGUUUG [Exclusion Theophylline B GF 21],160 nM
16,AAGCCAAAGAUUGCUGCGGGUUCCAGAGAUACCAGCCGUAUUGAAGGCCCUUGGCAGCUCGAGUGAUGUUCGAGCCGUCUCUGGC [Lexerati],105 nM
17,UGACUGGAUUGAAGGAGCGCUAAACUCCUAGUGAUGUUAGGGAAACAAGACAAAGUCUUGAGGCAGGUAGGUCGCAAUCUAGUCU [FiskerMod 4 - Jieux - Same State - Arginine B],175 nM
18,CCUUCUCUUGAUAGUGAUGUUAUCAAGGGCAAGGAUAUCAUCUUAAUGAGAAGGUGUCCUUGAUAACAUGGAGGUCUGAAACAGA [Omei KL FMN A Exc C v5],335 nM
19,UGGUCUGCACGAAGGAGCGCCCUGACAGGUUGCUGCCGUGGGCAGUGAUGUUGCUUAGUCCGGCAGGUAGGUCGCGUGCAGACCA,170 nM
20,UUUCCAGAUAAGUGGGAACACUCCAUAACAGAGGAUAUCAGAGCGCUGAGAAGGCUGUUUUACAGUGAUGUUGUAAGUGUGGAGU [FMN A SS t2],253 nM
21,UCCUGCAAUCGACCACGAAAGUGGAUCGAUACCAGAGUCGAAAGACUCCCUUGGCAGCGAGUGAUGUUCGAAGCAGGUAAAUAAA [#SwitchBubble 22 #K4Late],383 nM

row,Sequence,apparent KD of K4 kissing-loop reporter
1,GAGCGGUGGAGGUUACCGCUAUUCUGAGAAGGAGCGCAGAAGACUGCAGGUAGGUCGCUUAGAGCUUGCAGUGAUGUUGCAAGUU [KL-SSArg-A13],127 nM
2,CGCUGGGCGAGUGAUGUUCGCUCACGUGAUACCAGUGCCAUCCAACACCCUUGGCAGCACGCGGGCAGUGAUGUUGUCCUUGUGG [Exclusion Theophylline A GF7],268 nM
3,GGAUCCACCAGUGAUGUUGGAGAAAACUCUAAGGAUAUGACGAAAGUCAGAAGGUGGUAGACUGGACAAAGUCCGGUCGGAUCCA [FmnA 23 U30],347 nM
4,AGCUCACACGGAAGGAGCGGAUAGAACUGACAGUUGGGCUCAAGUGAUGUUUGGGCUUGAAUCCAGGUAGGUCGCCGUGUGAGCU [Arg B SS t12],123 nM
5,CCGACUGCAGGAAGGAGCGGCGGUUGGAGUGAUGUUCCAGGUAGUGAUGUUACCAAGAUCCGCCAGGUAGGUCGCCUGUUGCUCA [Same State Arginie B GF 12],125 nM
6,UUUUAUUAAUUCUUCUAGUGAUGUUAGAUACGAGGACCGGUACGGCCGCCACUCGCUUAUUGGUUUAUAUAUUUUAUAUUCUUUA [JR_SSTryptoA_Sub015],264 nM
7,AAGUGAUGUUGUAGUGAUGUUGUGAUGUUGCAGGAUAUAUAGUGAUGUAGAAGGGUAAGUACUUAUUUUUUUUUUGAGUGAUGUU [vcbczrmullin],83.7 nM
8,GGUGCUGUUUGUGCCGCCUUCCUCGUUCCUCGAGGACCGGUACGGCCGCCACUCGAGUGAUGUUUGGGUAGCGAUCCCUGCUAGC [Bdazzled - #14 Exc. Tryptophan A],413 nM
9,GGUAGCAUGGCGGCCGCCACUCGCUAGUGAUGUUAGCGGGAUGAGACAAAGGACAUAACUUUAUCGAGGACCGGGCCAUGCUACC,92.9 nM
10,AAGGCCACGAGAAGGAGCGUGCUAUGGAGUGAUGUUCCAGUGUAGACCUAAGGUCUACACGCACAGGUAGGUCGCUCGUGGUCAA [Omei KL Arginine B SS A v1],186 nM
11,AAGGGCUAGGCGGCCGCCACUGGUCGUGUACACAUACGAACCAGUGAUGUUGGUAUUGUAUGCGGCAGGACCGGGCCUAGCCGAA [Exclusion - Tryptophan B (Freestyle 26)],405 nM
12,AGAUCUGUAACAGAUACCAGAGGACGAUGAUCGGAUAGUGAUGUUAUCUGUCAGUCGUCGCUCCCUUGGCAGCUGUUACAGAUCA [Omei KL Theo B SS B v1],157 nM
13,CGGGUACGUCAAGGAUAUAGGCAUGACGUAGUGCAGUGAUGUUGCUCGAGUCUCUUCAACUGAGGACUAGAAGGUGAUCGUAACA [theeternabot_sameState_KL_FMN_B_15],344 nM
14,AAACAUCACUGGGAGUGAUGUUCUCAGUGACGAGGACCGGUACGGCCGCCACUCGCGAGAGAUAUAGUUAAGUAAUGACUGCAUU [Excl Tryptophan A V7],324 nM
15,UCCUAGGCUCGAAAGAGCCUAGGAUUAACUCAGGAUAUCCGGAAACGGAGAAGGGAGUAACUAGUGAUGUUAGGGAUUCCCUAUU,92.7 nM
16,UGGUUUAACUGAAGGAGCGGCAAUUGAUAAGUAAAUAUAGUGAUGUUAUAUAAGAUAGAGAGCCAGGUAGGUCGCAGAGGUAUUU [ExArgB.O],141 nM
17,AACUCUCAGACACUUGAGUGAUGUUCAGACCGAGGACCGGUACGGCCGCCACUCGGGUCUGAGAGAGGUUAUCAAAGAUAGCCAA [Omei KL Tryp A SS A v7],905 nM
18,UGACUGGAUGGAAGGAGCGCUAAACUCCUAGUGAUGUUAGGGAUAUGAGGCAAAGCCUCGAGGCAGGUAGGUCGCCAUCUAGUCU [FiskerMod 19 - Jieux - Same State - Arginine B],122 nM
19,UGAUACCAGACGGCCGCCACUCCCGUAAGUCAAAGACUUACGAAGAGGGUUUUUUAGUGAUGUUGGAGGACCGGGUCUGGUAUCU [FiskerMod 18 - Jieux - Exclusion - Tryptophan B],2320 nM
20,UGUCAUUGGUCGGCCGCCACUAAAAUAAAAGAGUGAUGUUCUUAAAAGACGGACAAAGUCUGUCAUAGGACCGGGACCGAUGACU [TrypBS 23 #SwitchBubble #StaticStem],202 nM
21,AUAUUUAUUUAGUCACUUUUAAUAUUAUGUCAGGAUAUCGUAAUUUCGAGAAGGGACUCAUGCUAGUGAUGUUAGCUAAUUCUCA [JR_Nu3_ExcFMNA_Sub023],110 nM
